Data as given in patent US9618524B2, “Method, composition, isolation and identification of a plaque particle and related biomarker” (Plaxgen Inc., priority 2012, dated 2017).

Key:
Test in all cases: Mass spectroscopy proteomics, semi-quantitative binding affinity of serum proteins (plaqueproteome, Table 2)
Details in all cases: higher number = stronger affinity
[1] = molecular target: T1, Abeta-42 plaque particles (Homo sapiens, UniProt P05067)
T1 construct: Abeta 1-42
Experimental: Next to isolate serum derived Abeta-42 plaque particles, the plasma or serum samples obtained from AD subjects were first centrifuged at 5,000 rpm for 5 min and the supernatants were transferred to new centrifuge tubes. Next, the supernatants were diluted in PBS to make 50% of the serum and plasma samples and used for incubation with Abeta-42 plaque oligomers/aggregates. Each assay was performed in 1 mL reaction (800 μL of 50% plasma or serum) and 200 μL (30 μg) of the Abeta-42 aggregates and the mixtures were incubated at 37° C. for 1 hr. To the mixture Thioflavin S dye (120 μg) was added and the sample was incubated for additional 30 min at 37° C. After the incubation, the mixture was directly used for sample acquisition using flow cytometer (FACS ARIA II, BD Biosciences, San Jose, Calif.). After initial detection of Abeta-42 plaque particles in the acquisition blot, gates were drawn in fluorescent dot blot to separately sort and isolate fluorescently labeled Abeta-42 particles.
(§1) For preparing trypsin digested peptide sequences, the isolated plaque particles were centrifuged at 10000 rpm for 5 min and the pellet containing plaque particles was resuspended in 100 μl PBS buffer. Stock solutions of digestion buffer (Ammonium Biocarbonate 50 mM), reducing buffer (DDT 100 mM) and alkylation buffer (lodoaceamide 100 mM) were prepared and stored at −20° C. for up to two months. For trypsin digestion, 100 μl of each plaque particles (2000 of Abeta-42, cholesterol, Tau and alpha-synuclein) were precipitated using cold acetone −80° C. by adding 4X's the volume. The samples were placed on dry ice for 10 min with intermittent vortex. Next, the samples were centrifuged at 4° C. at 10000 G for 10 min. Top layer of acetone was carefully removed from the tube with care not to disturb the plaque particles pellet. The samples were speed-vac for 10 min to ensure all acetone has been boiled away. The plaque particles pellet were reconstituted with 15 μl 8M Urea 100 mM Ammonium bicarbonate stock and 20 μl protease max solution. The protease max solution (Promega, Madison, Wis.) was prepared from stock by adding 60 μl 50 mM Ammonium bicarbonate and used for 3 solution digests (20 μl each). […] The tubes were incubated at 55° C. for 30 minutes. The tubes were then removed and brought to the room temperature followed by addition of 3.2 μl of 1M acrylamide and incubated at room temperature for 30 minutes. To the sample, 63 μL of 50 mM Ammonium bicarbonate was added for a final volume of 98 μl and 2 μl of trypsin (10 μg, Trypsin/Lys C Mix). After mixing the solution with pipet the samples were incubated at 37° C. overnight. After the overnight digest, the tryptic digest were quenched and acidified by adding 10 μl of 50% formic acid/water stock dilution. The samples were centrifuged at 10000 G for 2 minutes and purified using stage tip and used for MS/Mass analysis.
(§2) All MS/MS samples were analyzed using Sequest (Thermo Fisher Scientific, San Jose, Calif., USA; version 1.0). Sequest was set up to search the SUMS_uniprot_Human database (35847 entries) assuming the digestion enzyme strict trypsin. Sequest was searched with a fragment ion mass tolerance of 1.00 Da and a parent ion tolerance of 20 PPM. Propionamide of cysteine was specified in Sequest as a fixed modification. Oxidation of methionine and phospho of serine, threonine and tyrosine were specified in Sequest as variable modifications.
Scaffold (version Scaffold_4.2.1, Proteome Software Inc., Portland, Oreg.) was used to validate MS/MS based peptide and protein identifications. […] Protein probabilities were assigned by the Protein Prophet algorithm (Nesvizhskii, Al et al 2003). […] Proteins sharing significant peptide evidence were grouped into clusters. Proteins were annotated with GO terms from NCBI (downloaded Jan. 17, 2014).

[2] = system: Low density cholesterol (Chl small) plaque particles; set-up: species or system human
Experimental: (§3) The goal was to isolate plaque particles synthesized in the bio-fluids in a relatively pure form to enable their subsequent use for identification of components that contribute to the plaque formation. In order to isolate cholesterol plaque particles, the plasma or serum samples obtained from atherosclerotic subjects were first centrifuged at 5,000 rpm for 5 min and the supernatants were transferred to new centrifuge tubes. Next, the supernatants were diluted in PBS to make 50% of the serum and used for incubation with cholesterol oligomers/aggregates. Each assay was performed in 1 mL reaction (800 μL of 50% plasma or serum) and 200 μL (30 μg) of the Cholesterol aggregates and the mixtures were incubated at 37° C. for 1 hr After the incubation, the mixture was directly used for sample acquisition using flow cytometer (FACS ARIA II, BD Biosciences, San Jose, Calif.). […] In order to isolate these fractions, three sets of gates were drawn in the acquisition blot to separately sort and isolate High density or high complex cholesterol particles, Low density or low complex cholesterol particles and both High and low density cholesterol particles together.
as §1, §2
(§4) Scaffold (version Scaffold_4.2.1, Proteome Software Inc., Portland, Oreg.) was used to validate MS/MS based peptide and protein identifications. […] Protein probabilities were assigned by the Protein Prophet algorithm (Nesvizhskii, Al et al 2003).

[3] = system: High Density cholesterol (Chl Large) plaque particles; set-up: species or system human
Experimental: as §3, §1, §2, §4

Tau plaque particles = system: Tau plaque particles; set-up: species or system human
Experimental: For Tau-74 (74-102) (Exon 3/Insert 2 domain) preparation, 1 mg of Tau-74 was suspended in 1 mL of PBS and the sample was incubated at 37° C. for 2 hrs. Similarly for preparing Tau-275 (275-305) (Repeat 2 domain) 1 mg of the peptide was suspended in 1 mL of PBS and the sample was incubated at 37° C. for 2 hrs. After incubation, all the samples were centrifuged for 5 min. at 5000 rpm to remove precipitate, if any, and the supernatant containing oligomers/aggregates were used for in vitro amyloid plaque particles formation assay. For detecting Tau plaque particles, Thioflavin S (Ex/Em=430 nm/550 nm) amyloid binding fluorescent dye (10 μg) was used in the assay.
Next, to isolate Tau plaque particles, as performed for Abeta-42 and Abeta-28 plaque particles isolation, diluted serum samples were used for incubation separately with Tau-45, Tau-74 and Tau-275 oligomers/aggregates. Each assay was performed in 1 mL reaction (800 μL of 50% plasma or serum) and 200 μL (30 μg) of each Tau aggregates and the mixtures were incubated at 37° C. for 1 hr. To the each mixture Thioflavin S dye (120 μg) was added and the sample was incubated for additional 30 min at 37° C. After the incubation, each sample was directly used for sample acquisition using flow cytometer (FACS ARIA II, BD Biosciences, San Jose, Calif.). After initial detection of Tau plaque particles, gates were drawn in the acquisition blot to separately sort and isolate fluorescently labeled Tau plaque particles.
as §1, §2

[4] = molecular target: T2, alpha-synuclein plaque particles (Homo sapiens, UniProt P37840)
T2 construct: 140 amino acids polypeptide
Experimental: To prepare oligomers/aggregates of human alpha-synuclein (140 amino acids polypeptide), 1 mg of the recombinant alpha-synuclein protein was suspended in 1 mL of PBS and the sample was incubated at 37° C. for 2 hrs. After incubation, all the samples were centrifuged for 5 min. at 5000 rpm to remove precipitate, if any, and the supernatant containing oligomers/aggregates were used in vitro plaque particles formation assay. For detecting alpha-synuclein plaque particles Thioflavin S (Ex/Em=430 nm/550 nm) amyloid binding fluorescent dye (10 μg) was used.
Similarly, to isolate alpha-synuclein plaque particles, diluted plasma or serum samples obtained from AD subjects were used for incubation with alpha-synuclein plaque oligomers/aggregates. Each assay was performed in 1 mL reaction (800 μL of 50% plasma or serum) and 200 μL (30 μg) of the alpha-synuclein aggregates and the mixtures were incubated at 37° C. for 1 hr. To the mixture Thioflavin S dye (120 μg) was added and the sample was incubated for additional 30 min at 37° C. After the incubation, the mixture was directly used for sample acquisition using flow cytometer (FACS ARIA II, BD Biosciences, San Jose, Calif.). After initial detection of alpha-synuclein plaque particles, gates were drawn in the acquisition blot to separately sort and isolate fluorescently labeled alpha-synuclein particles.
as §1, §2
Scaffold (version Scaffold_4.2.1, Proteome Software Inc., Portland, Oreg.) was used to validate MS/MS based peptide and protein identifications.

Row | Molecule | Semi-quantitative analysis of proteins binding to different plaque particles: Abeta-42 [1] | Semi-quantitative analysis of proteins binding to different plaque particles: Chl small [2] | Semi-quantitative analysis of proteins binding to different plaque particles: Chl Large [3] | Semi-quantitative analysis of proteins binding to different plaque particles: Tau (Tau plaque particles) | Semi-quantitative analysis of proteins binding to different plaque particles: Synuclein [4]
1 | Heparin cofactor 2 (protein) GSKGPLDQLEKGGETAQSADPQWEQLNNKNLSMPLLPADFHKENTVTNDWIPEGEEDDDYLDLEKIFSEDDDYIDIVDSLSVSPTDSDVSAGNILQLFHGKSRIQRLNILNAKFAFNLYRVLKDQVNTFDNIFIAPVGISTAMGMISLGLKGETHEQVHSILHFKDFVNASSKYEITTIHNLFRKLTHRLFRRNFGYTLRSVNDLYIQKQFPILLDFKTKVREYYFAEAQIADFSDPAFISKTNNHIMKLTKGLIKDALENIDPATQMMILNCIYFKGSWVNKFPVEMTHNHNFRLNEREVVKVSMMQTKGNFLAANDQELDCDILQLEYVGGISMLIVVPHKMSGMKTLEAQLTPRVVERWQKSMTNRTREVLLPKFKLEKNYNLVESLKLMGIRMLFDKNGNMAGISDQRIAIDLFKHQGTITVNEEGTQATTVTTVGFMPLSTQVRFTVDRPFLFLIYEHRTSCLLFMGRVANPSRS | 0 | 1 | 3 | 6 | 1
2 | Complement factor I (protein) KVTYTSQEDLVEKKCLAKKYTHLSCDKVFCQPWQRCIEGTCVCKLPYQCPKNGTAVCATNRRSFPTYCQQKSLECLHPGTKFLNNGTCTAEGKFSVSLKHGNTDSEGIVEVKLVDQDKTMFICKSSWSMREANVACLDLGFQQGADTQRRFKLSDLSINSTECLHVHCRGLETSLAECTFTKRRTMGYQDFADVVCYTQKADSPMDDFFQCVNGKYISQMKACDGINDCGDQSDELCCKACQGKGFHCKSGVCIPSQYQCNGEVDCITGEDEVGCAGFASVTQEETEILTADMDAERRRIKSLLPKLSCGVKNRMHIRRKRIVGGKRAQLGDLPWQVAIKDASGITCGGIYIGGCWILTAAHCLRASKTHRYQIWTTVVDWIHPDLKRIVIEYVDRIIFHENYNAGTYQNDIALIEMKKDGNKKDCELPRSIPACVPWSPYLFQPNDTCIVSGWGREKDNERVFSLQWGEVKLISNCSKFYGNRFYEKEMECAGTYDGSIDACKGDSGGPLVCMDANNVTYVWGVVSWGENCGKPEFPGVYTKVANYFDWISYHVGRPFISQYNV | 0 | 3 | 4 | 3 | 4
3 | Complement C1r subcomponent (protein) SIPIPQKLFGEVTSPLFPKPYPNNFETTTVITVPTGYRVKLVFQQFDLEPSEGCFYDYVKISADKKSLGRFCGQLGSPLGNPPGKKEFMSQGNKMLLTFHTDFSNEENGTIMFYKGFLAYYQAVDLDECASRSKSGEEDPQPQCQHLCHNYVGGYFCSCRPGYELQEDTHSCQAECSSELYTEASGYISSLEYPRSYPPDLRCNYSIRVERGLTLHLKFLEPFDIDDHQQVHCPYDQLQIYANGKNIGEFCGKQRPPDLDTSSNAVDLLFFTDESGDSRGWKLRYTTEIIKCPQPKTLDEFTIIQNLQPQYQFRDYFIATCKQGYQLIEGNQVLHSFTAVCQDDGTWHRAMPRCKIKDCGQPRNLPNGDFRYTTTMGVNTYKARIQYYCHEPYYKMQTRAGSRESEQGVYTCTAQGIWKNEQKGEKIPRCLPVCGKPVNPVEQRQRIIGGQKAKMGNFPWQVFTNIHGRGGGALLGDRWILTAAHTLYPKEHEAQSNASLDVFLGHTNVEELMKLGNHPIRRVSVHPDYRQDESYNFEGDIALLELENSVTLGPNLLPICLPDNDTFYDLGLMGYVSGFGVMEEKIAHDLRFVRLPVANPQACENWLRGKNRMDVFSQNMFCAGHPSLKQDACQGDSGGVFAVRDPNTDRWVATGIVSWGIGCSRGYGFYTKVLNYVDWIKKEMEEED | 0 | 4 | 2 | 4 | 3
